Target: T1, CD20 (Homo sapiens, UniProt P11836)
T1 chain: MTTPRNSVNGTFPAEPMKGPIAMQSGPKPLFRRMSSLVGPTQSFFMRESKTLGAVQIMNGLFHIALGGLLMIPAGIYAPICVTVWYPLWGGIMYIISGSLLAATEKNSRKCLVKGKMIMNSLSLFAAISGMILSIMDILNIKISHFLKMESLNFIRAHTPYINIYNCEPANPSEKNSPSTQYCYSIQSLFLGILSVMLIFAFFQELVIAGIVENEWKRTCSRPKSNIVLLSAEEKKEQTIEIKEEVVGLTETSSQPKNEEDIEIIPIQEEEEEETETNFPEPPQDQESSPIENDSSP
Assay: saturation binding

B1: Rituximab (antibody, V domains shown)
VH: QVQLQQPGAELVKPGASVKMSCKASGYTFTSYNMHWVKQTPGRGLEWIGAIYPGNGDTSYNQKFKGKATLTADKSSSTAYMQLSSLTSEDSAVYYCARSTYYGGDWYFNVWGAGTTVTVSA
VL: QIVLSQSPAILSASPGEKVTMTCRASSSVSYIHWFQQKPGSSPKPWIYATSNLASGVPVRFSGSGSGTSYSLTISRVEAEDAATYYCQQWTSNPPTFGGGTKLEIK
modifications: 90Y-DOTA conjugated
- Kd: 2.84 nM

Reference: article PMC5603870 (2017)
